Source: patent publication US20130184211A1 (NEW YORK UNIVERSITY, published 2013)

B1: N-terminally hexahistidine-tagged 72-amino acid C-terminal tail of human FGF23 (S180 to I251), FGF23^180-251 (peptide)
peptide: SAEDDSERDPLNVLKPRARMTPAPASCSQELPSAEDNSPMASDPLGVVRGGRVNTHAGGTGPEGCRPFAKFI
notes: Expressed in E. coli; also called FGF23 C-terminal tail peptide; C-terminal tail of FGF23; not shown: N-terminal hexahistidine tag (six His)
B2: FGF23 C-terminal region peptide (S180 to S205), FGF23^180-205 (peptide)
peptide: SAEDDSERDPLNVLKPRARMTPAPAS
notes: Made by solid phase synthesis (GenScript)

Tests used:
[1] = biological target: T1, complex of V5-tagged FGFR4 and FLAG-tagged membrane-spanning murine Klotho isolated from transfected … (murine, UniProt O35082 35-1014); assay: co-immunoprecipitation competition; competitor FGF23^28-251 (1 nM)
T1 construct: Isolated from cell lysate on anti-V5 agarose beads; also called FGFR4-Klotho complex; binary FGFR-Klotho complex; not shown: FGFR4, V5-tagged, expressed from a vector in HEK293-Klotho cells
Source text: (§1) Co-immunoprecipitation may also be used to determine that an agent specifically binds the binary FGFR-Klotho complex. One aspect of the present invention utilizes co-immunoprecipitation studies. Subconfluent cultures of a HEK293 cell line ectopically expressing the FLAG-tagged membrane-spanning form of murine Klotho were transfected with expression vectors for V5-tagged FGFR1c, FGFR3c, or FGFR4. Two days later, the cells were lysed, and FGFR-Klotho complexes were isolated from cell lysate using anti-V5 agarose beads. The beads were then incubated with either FGF23¹⁸⁰⁻²⁵¹ or FGF23²⁸⁻²⁵¹ alone, or with mixtures of FGF23²⁸⁻²⁵¹ with either increasing FGF23¹⁸⁰⁻²⁵¹ or increasing FGF23¹⁸⁰⁻²⁰⁵. Bead-bound proteins were resolved on SDS-polyacrylamide gels, transferred to nitrocellulose membranes, and labeled using antibodies to Klotho, FGF23, and V5 epitope tag.

[2] = biological target: T2, complex of V5-tagged FGFR1c and FLAG-tagged membrane-spanning murine Klotho isolated from transfected … (murine, UniProt O35082 35-1014); assay: co-immunoprecipitation competition; competitor FGF23^28-251
T2 construct: Isolated from cell lysate on anti-V5 agarose beads; also called FGFR1c-Klotho complex (co-immunoprecipitated); binary FGFR-Klotho complex; not shown: FGFR1c, V5-tagged, expressed from a vector in HEK293-Klotho cells
T2 sequence (O35082 35-1014, one chain of several): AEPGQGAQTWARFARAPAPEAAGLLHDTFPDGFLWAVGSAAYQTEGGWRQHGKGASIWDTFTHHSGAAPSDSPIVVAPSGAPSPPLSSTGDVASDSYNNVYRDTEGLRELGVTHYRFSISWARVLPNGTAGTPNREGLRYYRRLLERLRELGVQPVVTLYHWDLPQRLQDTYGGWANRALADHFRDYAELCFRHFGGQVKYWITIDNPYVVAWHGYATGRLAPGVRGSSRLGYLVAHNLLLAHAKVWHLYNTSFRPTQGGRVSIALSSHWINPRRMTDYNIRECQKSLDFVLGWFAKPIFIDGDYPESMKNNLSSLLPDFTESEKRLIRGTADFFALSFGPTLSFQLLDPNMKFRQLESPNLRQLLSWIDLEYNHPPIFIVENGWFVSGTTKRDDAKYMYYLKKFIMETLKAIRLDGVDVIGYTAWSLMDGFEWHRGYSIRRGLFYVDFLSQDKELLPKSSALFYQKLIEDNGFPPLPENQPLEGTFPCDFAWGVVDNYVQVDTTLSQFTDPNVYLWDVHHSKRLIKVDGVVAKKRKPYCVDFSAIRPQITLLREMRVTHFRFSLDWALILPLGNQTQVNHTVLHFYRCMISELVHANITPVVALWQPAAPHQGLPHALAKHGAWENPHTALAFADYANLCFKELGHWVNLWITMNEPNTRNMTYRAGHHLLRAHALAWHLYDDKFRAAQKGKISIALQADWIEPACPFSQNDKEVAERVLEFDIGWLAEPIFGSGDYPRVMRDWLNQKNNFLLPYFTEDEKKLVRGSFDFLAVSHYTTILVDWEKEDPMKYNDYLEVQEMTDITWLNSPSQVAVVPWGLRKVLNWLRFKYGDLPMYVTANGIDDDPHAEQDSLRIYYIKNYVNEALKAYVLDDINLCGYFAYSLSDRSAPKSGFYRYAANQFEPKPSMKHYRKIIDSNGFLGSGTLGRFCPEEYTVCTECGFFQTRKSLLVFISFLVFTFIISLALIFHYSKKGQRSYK
Source text: as §1

[3] = biological target: T1, complex of V5-tagged FGFR4 and …; assay: as above
Source text: as §1
Target sequence in this assay (O35082 35-1014, one chain of several): as above

[4] = biological target: T3, complex of V5-tagged FGFR3c and FLAG-tagged membrane-spanning murine Klotho isolated from transfected … (murine, UniProt O35082 35-1014); assay: as above
T3 construct: Isolated from cell lysate on anti-V5 agarose beads; also called FGFR3c-Klotho complex; binary FGFR-Klotho complex; not shown: FGFR3c, V5-tagged, expressed from a vector in HEK293-Klotho cells
T3 sequence (O35082 35-1014, one chain of several): as above
Source text: as §1

| Binder | molar excess over FGF23^28-251 that completely blocked its binding [1] [fold molar excess] | fold reduced potency compared to the FGF23^180-251 peptide [2] [fold] | fold reduced potency compared to the FGF23^180-251 peptide [3] [fold] | fold reduced potency compared to the FGF23^180-251 peptide [4] [fold] |
| --- | --- | --- | --- | --- |
| B1 | 76 | – | – | – |
| B2 | – | 100 | > 100 | > 100 |
